This is an account of results in the nanobody polyreactivity screen of Harvey et al. (2022).

This series in a line: yeast display, Sf9 membrane polyspecificity reagent, FACS + sequencing; frameworks hold sequencing errors. An outline of the steps:
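Galactose-induced (36–48 hours) yeast carrying a synthetic nanobody display library were exposed to 10% biotinylated, detergent-solubilized Sf9 membrane reagent at 4 °C for 1 hour. FACS followed streptavidin microbead enrichment, using low and high (top ~1%) gates for expression (anti-HA) and reagent binding (streptavidin). Colony PCR, MiSeq 2 × 250 sequencing and CDR-length filtering followed. Labels for polyreactivity reflect the gate of origin.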
“QVQLVESGGGLVQAGGSLRLSCAASGSIFPGNAMGWYRQAPGKERELVAAIRGGGSTNYADSVKGRFTISRDNAKNTVYLQMNSLKPEDTAVYYCNADPFTGYDYWGQGTQVTVSS”: the “polyreactivity (PSR sort gate)” value is on record as “low polyreactivity”.

For the sequence “QVQLVESGGGLVQAGVSLRLSCAASGRIFGPYAMGWYRQAPGKERELVAAITWRGDRTYYADSVKGRFTISRDNAKNTVYLQMNSLKPEDTAVYYCAARGGRSEYDYWGLGTQVTVSS”, the “polyreactivity (PSR sort gate)” value was “low polyreactivity”.

On to “QVQLVESGGGLVQAGGSLRLSCAASGYIFDPNAMGWYRQAPGKERELVAAISGSGTSTYYADSVKGRFTISRDNAKNTVYLQMNSLKPEDTAVYYCAAAHDAGPVRYYYWGHGTQVTVSS”, for which the “polyreactivity (PSR sort gate)” value is on record as “low polyreactivity”.

In the case of “QVQLVESGGGLVQAGGSHRLSCSGSGFSLTLNAMGWYRQAPGKERELVAAISGNGGRTYYADSVKGRFTISRDNAKNTVYLQMNSLKPEDTAVYYCAARYTRTPSDCSTRKFGYGYWGQRTQVTVSS”, the “polyreactivity (PSR sort gate)” value is given as “high polyreactivity”.

“QVQLVESGGGLVQAGGSLRLSCAASGFTFRYYAMGWYRPAPGKERELVAAISSGGRTNYADSVKGRFTISRDNAKNTVYLQMNSLKPEDTAVYYCATASRRGDPRLRFYYWGQGTQVTVSS”: the “polyreactivity (PSR sort gate)” value is reported as “high polyreactivity”.

Regarding “QVQLVESGGGLVQAGGSLRLSCAASGSTFNGYTMGWYRQAPGKERELVAAISKSGGRTYYADSVKGRFTISRDNAKNTVYLQMNSLKPEDTAVYYCAAHFRALGIYYTYDYWGQGTQVTVSS”, the “polyreactivity (PSR sort gate)” value is “high polyreactivity”.

As to “QVQLVESGGGLDQAGGSLRLSCAASGSTLGYNVMGWYRQAPGKERELVAAISGDGSTNYADSVKGRFTISRDNAKNTVYLQMNSLKPEDTAVYYCAARPGWFAGYEYWGQGTQVTVSS”, the “polyreactivity (PSR sort gate)” value is recorded as “low polyreactivity”.

For “QVQLVESGGGLVQAGVSLRLSCAASGSTFGRYTMGWYRQAPGKERELVAVITRGGDSTYYADSVKWRFTISRDNAKNTVYLQMNSLKPEDTAVYYCNAETNDWYYQAYLEVEYWGQGTQETVSS”, the “polyreactivity (PSR sort gate)” value is listed as “low polyreactivity”.

Regarding “QVQLVESGGGLVQAGGSLRLSCAASGSIFYNNSKGWYRPAPGKERELVAAISLRGGSTYYADSVKGRFTISRDNAKNTVYLQMNSLKPEDSAVYYCAAVTGARYYPARASRGKFDYWGQGTQVTVSS”, the “polyreactivity (PSR sort gate)” value was “high polyreactivity”.

“QVQLVESGGGLVQAGGSLRLSCAASGRTFRFNAMGWYRQAPGKERELVAAISSGGNTYYADSVKGRFTISRDNAKNTVYLQMNSLKPEDTAVYYCNTVYLYGTHDYWGQGTQVTVSS”: the “polyreactivity (PSR sort gate)” value was “low polyreactivity”.

On to “QVQLVESGGGLVQAGGSLRLSCAASGSTFVRNAMGWYRQAPGKERELVAAITSSGGSTYYADSVKGRFTISRDNAKNTVYLQMNSLKPVDTAVYYCNARVPPQGWGPWKAFDYWGQGTQVTVSS”, for which the “polyreactivity (PSR sort gate)” value is “low polyreactivity”.

In the case of “QVQLVESGGGLVQAGGSLRLSCAASGRTFRKYAMGWYRQAPGKERELVAAINKSGGTTYYADSVKGRFTISRDNAKNTVYLQMNSLNPEDTAVYYCAADFYYYSYHSGQAPYDYWGQGTQVTVSS”, the “polyreactivity (PSR sort gate)” value is recorded as “high polyreactivity”.

In the case of “QVQLVESGGGLVQAGGSLRLSCAASGSIFSYNVMGGYRQAPGKERELVAVITGSGGSTYYADSVKGRFTISRDNAKNTVYLQMNSLKPEDTAVYYCNKDRGTIPPSGNDYWGQGTLVTVSS”, the “polyreactivity (PSR sort gate)” value is “low polyreactivity”.

In the case of “QVQLGESGGGLVQAGGSLRLSCAASGSSFWVNAMGWYRQAPGKETELVAAISRGSTYYADSVKGRFTISRDNAKNTVYLQRNSLKPEDTAVYYCNARYLYSHSRYARYHSWGQGTQVTVSS”, the “polyreactivity (PSR sort gate)” value is “high polyreactivity”.

Take “QVQLVESVGGLVQAGGSLRLSCAASGYNFWSNTMGWYRQAPGKERELVAAISQSTASTYYADSVKGRFTISRDNAKNTVYLQMNSLKPEDTAVYYCAAYYNFGDYEYDYWGQGTQVTVSS”: the “polyreactivity (PSR sort gate)” value was “low polyreactivity”.

For the sequence “QVQLVESGGGLVQAGGSLRLSCAASGRIFAKNAMGWYRQAPGKERELVAAISGSGGSTYYADSVKGRFTISRDNAKNTVYLQMNSLKPDDTAVYYCAATRGPNYRNGYWGQGTQVTVSS”, the “polyreactivity (PSR sort gate)” value is on record as “high polyreactivity”.

For “QVQLVESGGGLVQAGGSLRLSCAASGGTFGINDMGWYRQAPGKERDLVAAISWSGGDTYYADSVKGRFTISRDNAKNTVYLQRNSLKPEDTAVYYCAADYHYTKSMYYWGQGTQVSVSS”, the “polyreactivity (PSR sort gate)” value is on record as “low polyreactivity”.

For the sequence “QVQLVESGVGIVQAGGSLRLSCAASGSTYGYNAMGWYRQAPGKESEFVARIRSSGSTTYADSVKRRFTISRDNAMNTVYLLMNSLNPEDNAVYYWAARRYFYLVVYYSWGQCTQVTVSS”, the “polyreactivity (PSR sort gate)” value is listed as “high polyreactivity”.

Take “QVQLVESGGGLVQAGGSLRLSCAASGRTFPLYAMGWYIQAPGKERELVAAITRSGGSTYYADSVKGRFTISRDNAKNTVYLQMNSLKPEDTAVYYCNARKSKDRPTGYAFNYWGQGTQVTVSS”: the “polyreactivity (PSR sort gate)” value is “high polyreactivity”.

On to “QVQLVESGGGLVQAGGSLRLSCAASGSIFAKYTMGWYRQAPGKERELVAAITRSGTSTRYADSVKGRFTISRDNAKNTVYLQMNSLKPEDTAVYYCAASLYSWGQGTQVTVSS”, for which the “polyreactivity (PSR sort gate)” value was “high polyreactivity”.

In the case of “QVQLVESGGGLVQAGGSLRLSCAASGSTFIRYAMGWYRQAPGKERELVAAITSGGRTNYADSVKGRFTISRDNAKNTVYLQMNSLKPEDTAVYYCAKLRWVYGRQTLMDYWGQGTQVTVSS”, the “polyreactivity (PSR sort gate)” value is listed as “high polyreactivity”.

“QVQLVESGGGLVQAGGSRRLSCAASGSTFSDYAMGWYRQAPGKERELVAAISSSGGRTYYADSVKGRFTISRDNAKNTVYLQMNSLNPEDTAVYYCNARGYARGVSTGYDFWGQGTQVTVSS”: the “polyreactivity (PSR sort gate)” value is listed as “high polyreactivity”.

As to “QVHLVVSGGGLVQAGGSLRLSCAASGRTFIRYAMGWYRQAPWKESELVAAITQSGGRTYYADSVKGRFTISRDNAKNTVYLQMNSLIPEDTAVYYCAAIGRYAFYYPRDYWGQGTQVTVSS”, the “polyreactivity (PSR sort gate)” value is on record as “high polyreactivity”.

With “QVQLVESGGGIVQAGGSLRLSCAASGRIFYRYDMGWYSQARGKERELVAAINDGGSTYYADSVKGRFTISRDNAKNTVYLQMNSLKPEDTAVYYCKVVNEHQSDFVVPFDYNHWGQGTQVTVSS”, the “polyreactivity (PSR sort gate)” value was “low polyreactivity”.

For “QVQLVESGGGLVQAGGSLRLSCAASGSTFTHYAMGWYRQAPGKERELVAAISWGGGTTRYADSVKGRFTISRDNAKNTVYLQMNSLKPEDTAVYYCAKRVRTGSVGNFNYWGQGTQVTVSS”, the “polyreactivity (PSR sort gate)” value is “high polyreactivity”.

For “QVQLVESGGGLVQAGGSLRLSCAASGRTFSNNAMGWYRQAPGKERELVADITYSSDSTYYADSVKGRFTISRDNAKNTVYLQMNCLKPEDTAVYYCAADVVVGGSGSEYYYWGQGTQVTVSS”, the “polyreactivity (PSR sort gate)” value is listed as “low polyreactivity”.

On to “QVQLVESGGGLVQAGGSLRLSCAAYGHIFFYYTMGWYRQAPGKERELVAAITIGGSTNYADSVKGRFTISRDYAKNTVYLQMNSLKPEDTAVYYCNVVKYVYIYSYWEYYYWGHGTQVTVSS”, for which the “polyreactivity (PSR sort gate)” value is “low polyreactivity”.

For “QVQLVESGGGLVQAGGSLRLSCAASGSSFGRYVMGSYRPAPGKERELVAAIRSRGGSTYYADSVKGRFTISRDIAKNTVYLQMNSLKPEYTAVYYCNDVDRKPYRTYDYWGQGTQVTVSS”, the “polyreactivity (PSR sort gate)” value is reported as “high polyreactivity”.

For the sequence “QVQLVESGGGLVQAGGSLRLSCAASGSTFWYYAMGWYRQAPGKERELVAGITQSGGSTYYADSVKGRFTISRDNEKNTVYLQMNRLKPEDTAVYYCAKDGRVSGDFDYWGQGTQVTVSS”, the “polyreactivity (PSR sort gate)” value is listed as “low polyreactivity”.

In the case of “QVQLVESGGGLVQAGGSLRLSCAASGRTLPYNAMGWYRQAPGKERELVAAISKRGSSTYYADSVKGRFTISRDNAKNTVYLQMNSLKPEDTAVYYCAKGGSFYYWGQGTQVTVSS”, the “polyreactivity (PSR sort gate)” value is recorded as “high polyreactivity”.

In the case of “QVQLVESGGGLVQAGGSLRLSCAASGRIFAYYAMGWYRQAPGKERELVAAISGSDGSTYYADSVKGRFTISLDNAKNTVYLQMNSLKPEDTAVYYCAAQDTPGYDYWGQGTQVTVSS”, the “polyreactivity (PSR sort gate)” value is listed as “low polyreactivity”.

As to “QVQLVESGGGLVQAGGSLRLSCAASGIIFTINAMGWYRQAPGKERELVAAISGRGARTYYADSVKGRFTISRDNAKNTVYLQMNSLKPEDTAVYYCNAANSRLHGSDYWGQGTQVTVSS”, the “polyreactivity (PSR sort gate)” value was “high polyreactivity”.

As to “QVQLVESGGGLVQAGGSLRLSCADSGSTFDSYDMGWYRQAPGKERELVAGISYSSDRTYYADSVKGRFTISRDNAKNTVYLQMNSLKPEDTAVYYCAKDHTGTVQYPLDYWGQGTQVTVSS”, the “polyreactivity (PSR sort gate)” value is “low polyreactivity”.

As to “QVQHVESGGGLVQAGGSLRLSCAASGRTFRGNAMGWDRQAPGKERELVAAIRYRGGSTYYADSVKGRFTISRDNAKNTVYLQMNSLKPEDTAVYYCARRYTVHTQHYDYWGQGTQVTVSS”, the “polyreactivity (PSR sort gate)” value is “high polyreactivity”.

Consider “QVQLVESGGGLVQAGGSLRLSCADSGSIFWLYAMGWYRQAPGKERELVAAIDSGDSTKYADSVKGRFTISRDNAKNTVYLQMNSLKPEDTAVYYCNASRRYHVRAPYDYWGQGTQVTVSS”, for which the “polyreactivity (PSR sort gate)” value is reported as “low polyreactivity”.

Take “QVQLVETGGGLVQAGGSLRLSCAASGRTFGHNDMGWSRQAPGKERELVATISSDGSTNYADSVKGRFTISRDNAKNTVYLQMNSLKPEDTAVYYCAKVYQYVEYDYWGQGTQVTVSS”: the “polyreactivity (PSR sort gate)” value was “low polyreactivity”.

Take “QVQLVESGGGLVQAGGSLRLSCAASGRTFGAYAMGWYRQAPGTERELVAAISSSGGSTYYADSVKGRFTISRDNAKNTVYLQMNSLKPEDTAVYYCAKGWHRGVGFGYWGQGTQVTVSS”: the “polyreactivity (PSR sort gate)” value was “high polyreactivity”.

In the case of “QVHLVESGGGLVQAGGSLRLSCAASGRTFVYNSMGWYRQAPGKERELVAAISSDGASTYYADSVKGRFTISRDNAKNTVYLQMNSLKPEDTAVYYCAADFSYYSYEHYYWGQGTQVTVSS”, the “polyreactivity (PSR sort gate)” value was “low polyreactivity”.

Consider “QVQLVESGGGLVQAGGSLRLSCAASGSIFYVYAMGWYRQAPGKERELVAAISSSAGSTYYADSVKGRFTISRDNAKNTVYLQMNSLKPEDTAVYYCAAKVRYSLRKYYYWGQGTQVTVSS”, for which the “polyreactivity (PSR sort gate)” value is “high polyreactivity”.

As for “QVQLVESGGGLVQAGGSLRLSCAASGSTFPYNAMGWYRPAPGKERELVAAISSGGITYYADSVKGRFTISRDNAKNTVYLQMNSLIPEDTAVYYCAATVLGDYEYWGQGTQVTVSS”, the “polyreactivity (PSR sort gate)” value is on record as “low polyreactivity”.

For the sequence “QVQLVESGGGLVQAGGSLRLSCAASGGIFDTYAMGWYRQAPGKERELVAAISRRGGNTYYADSVKGRFTIARDNAKNTVYLQMNSLKPEDTAVYYCAAYYHGRMDYWGQGTQVTVSS”, the “polyreactivity (PSR sort gate)” value was “high polyreactivity”.
